Test results published in paper PMC12650144, “Interactive Role of the DHPR β1a SH3 Domain in Skeletal Muscle Excitation–Contraction Coupling” (Biomolecules, 2025).
One block for each binder: values may come before it.

Experiments:
[1] = biological target: T1, DHPR β1a SH3 domain (β1a residues V101-P272) (mouse, UniProt Q8R3Z5-4 101-272); assay: other fluorescence titration; tryptophan fluorescence quenching: intrinsic fluorescence of the β subunit or β1a-SH3 domain in the cuvette (sub-micromolar; 50 nM β1a-FL for the AID titration) monitored while titrating the II-III loop or peptides; excitation 280 nm, emission 340 nm; corrected for dilution and intrinsic fluorescence of the titrant; nonlinear regression; details: both partners purified
T1 construct: mouse DHPR β1a subunit, NCBI NM_031173, residues V101-P272 (split SH3 domain with the hook region); also called β1a–SH3 Domain (Residues 101–272); β1a SH3 protein; not shown: polyhistidine-tagged ubiquitin, N-terminal, cleaved
T1 sequence (Q8R3Z5 other isoform, or with tags, fused parts or gaps): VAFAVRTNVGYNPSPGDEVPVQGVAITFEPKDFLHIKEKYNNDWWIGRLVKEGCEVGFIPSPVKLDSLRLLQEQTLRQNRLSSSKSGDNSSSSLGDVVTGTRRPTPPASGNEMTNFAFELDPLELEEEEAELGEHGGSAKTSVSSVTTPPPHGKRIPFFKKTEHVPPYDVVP

[2] = biological target: T2, DHPR β1a subunit, full length (mouse, UniProt Q8R3Z5-4 1-524); assay: as above; details: both partners purified
T2 construct: mouse voltage-gated calcium channel (DHPR) β1a subunit, NCBI NM_031173, full length; also called β1a-FL; full-length β1a; source: E. coli BL21, purified (Ni-agarose, ubiquitin removed, preparative electrophoresis); not shown: polyhistidine-tagged ubiquitin, N-terminal, cleaved
T2 sequence (Q8R3Z5 other isoform, or with tags, fused parts or gaps): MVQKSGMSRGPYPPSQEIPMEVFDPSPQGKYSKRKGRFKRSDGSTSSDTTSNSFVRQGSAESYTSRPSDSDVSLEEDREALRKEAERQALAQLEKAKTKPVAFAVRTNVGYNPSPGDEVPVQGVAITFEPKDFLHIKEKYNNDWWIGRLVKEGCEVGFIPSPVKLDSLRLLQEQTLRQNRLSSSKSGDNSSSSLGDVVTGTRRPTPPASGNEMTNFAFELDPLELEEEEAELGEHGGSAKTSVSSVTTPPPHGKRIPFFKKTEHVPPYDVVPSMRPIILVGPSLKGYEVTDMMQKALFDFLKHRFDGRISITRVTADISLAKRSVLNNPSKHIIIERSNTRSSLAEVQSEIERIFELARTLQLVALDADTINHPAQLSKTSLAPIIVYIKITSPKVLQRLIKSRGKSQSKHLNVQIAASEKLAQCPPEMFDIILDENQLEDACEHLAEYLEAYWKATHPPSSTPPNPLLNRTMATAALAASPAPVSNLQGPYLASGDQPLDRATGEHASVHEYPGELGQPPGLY

Kd [1]: 3.6 ± 0.6 µM
Kd [2]: 4.9 ± 0.6 µM
B1: α1s II–III loop C region peptide (residues 720–765) (peptide, UniProt P07293 720-765, looked up)
peptide: LKVDEFESNVNEVKDPYPSADFPGDDEEDEPEIPVSPRPRPLAELQ
notes: DHPR α1s subunit, II-III loop C region, residues 720-765 of NP_001095190.1 (skeletal); also called α1s C; skeletal II-III loop C region; source: synthetic peptide

Kd [1]: 2.6 ± 0.2 µM
Kd [2]: 2.5 ± 0.4 µM
B2: DHPR α1s II-III loop (domain or fragment, UniProt P07293 666-791, looked up)
chain: EAESLTSAQKAKAEERKRRKMSRGLPDKTEEEKSVMAKKLEQKPKGEGIPTTAKLKVDEFESNVNEVKDPYPSADFPGDDEEDEPEIPVSPRPRPLAELQLKEKAVPIPEASSFFIFSPTNKVRVL
notes: DHPR α1s subunit (CaV1.1), cytoplasmic II-III loop, residues E666-L791 of NCBI X05921 (methods); the results say residues 666-790 of NP_001095190; Methods: E666-L791; results: 666-790; also called α1s DHPR II-III Loop; DHPR II-III loop; source: E. coli BL21, purified (Ni-agarose, ubiquitin removed, preparative electrophoresis); not shown: polyhistidine-tagged ubiquitin, N-terminal, cleaved

Kd [1]: 2.5 ± 0.2 µM
Kd [2]: 3.5 ± 0.4 µM
B3: α1c II–III loop C region peptide (residues 851–895) (peptide, UniProt P15381-1 851-895, looked up)
peptide: INMDDLQPNESEDKSPYPNPETTGEEDEEEPEMPVGPRPRPLSEL
notes: DHPR α1c subunit (cardiac, CaV1.2), II-III loop C region, residues 851-895 of NP_001129994.1 (cardiac); also called α1c C; cardiac II-III loop C region; source: synthetic peptide
